From publication PMC3957475 (Biochemical Journal, 2014) come the findings set out here.

Assay [1] has as its target T1, Biotinylated GAK (cyclin G-associated kinase) (Homo sapiens, biotin (biotinylated; site and way not stated)).
T1 construct: Captured on a CAP chip with the Biotin CAPture kit; the general purification removes the His6 tag
T1 chain: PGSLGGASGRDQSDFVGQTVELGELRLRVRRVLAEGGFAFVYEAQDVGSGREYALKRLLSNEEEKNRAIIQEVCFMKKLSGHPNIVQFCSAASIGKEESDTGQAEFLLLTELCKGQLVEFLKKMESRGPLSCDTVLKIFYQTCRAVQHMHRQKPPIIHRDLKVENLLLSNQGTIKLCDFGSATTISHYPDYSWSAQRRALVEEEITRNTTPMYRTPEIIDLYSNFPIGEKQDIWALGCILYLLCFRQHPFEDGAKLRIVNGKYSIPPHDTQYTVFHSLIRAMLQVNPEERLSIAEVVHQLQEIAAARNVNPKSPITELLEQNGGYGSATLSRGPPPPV
The experiment in a line: SPR; Biacore 3000, 25°C, 30 μl/min; biotinylated GAK captured on CAP chip (60-120 RU); nanobodies injected in serial 2-fold dilutions for 3 min; 50 mM Tris/HCl pH 7.4, 150 mM NaCl, 50 μM EDTA, 0.005% Tween 20; kinetic global fit, 1:1 Langmuir model. To be noted: both partners purified.

The target in assay [2] is T1, Biotinylated GAK (cyclin G-associated …). The experiment in a line: SPR; same SPR experiment as the kinetic fit (biotinylated GAK on CAP chip, 25°C, 50 mM Tris/HCl pH 7.4, 150 mM NaCl); steady-state analysis. To be noted: both partners purified. For orientation: SPR reads the build-up and loss of mass on a sensor chip optically.

B1: NbGAK_4 (VHH)
VHH: QVQLQESGGGSVQAGGSLRLSCGASEYTSRMGWFRQAPGAEREGVACIHRQSNLSYYSDSVRGRFTISQDNAKTTAFLLMSSLKPEDTAIYYCATTTDCAAFVERATAITAGQGTQVTVSS
notes: about 120 amino acids; structures of the complex with GAK deposited here (among PDB 4C57, 4C58, 4C59); From a GAK-immunised dromedary, phage display vector pMECS, which adds an HA and a His tag
Usually Kd stands for the equilibrium constant for the complex coming apart. Read a high Kd as lower affinity. On to B1, for which the equilibrium dissociation constant (Kd) turned out to be 10.3 nM in assay [1] and 12.8 nM in assay [2].

B2: NbGAK_1 (VHH)
VHH: QVQLQESGGGLVQPGGSLRLSCSASGFKFNDSYMSWVRRVPGKGLEWVAGIWEDSSAAHYRDSVKGRFTISRDNAKNMLYLQMSSLKSDDTGLYYCVRRGYSGDYRPINNPSSQGTQVTVSS
notes: about 120 amino acids; structure of the complex with GAK deposited here (one of PDB 4C57, 4C58, 4C59); From a GAK-immunised dromedary, phage display vector pMECS, which adds an HA and a His tag
Regarding B2, the equilibrium dissociation constant (Kd) turned out to be 59.9 nM in assay [1] and 60.3 nM in assay [2].
